Measured values reported in patent US20150315280A1 (Chugai, published 2015).

Molecular target: T1, mouse NR 10 (mouse, UniProt Q8K5B1 19-716)
T1 construct: In the proliferation assays it is expressed on Ba/F3 cells together with mouse OSMR, with which it forms the IL-31 receptor; also called mNR 10; IL-31RA
T1 sequence: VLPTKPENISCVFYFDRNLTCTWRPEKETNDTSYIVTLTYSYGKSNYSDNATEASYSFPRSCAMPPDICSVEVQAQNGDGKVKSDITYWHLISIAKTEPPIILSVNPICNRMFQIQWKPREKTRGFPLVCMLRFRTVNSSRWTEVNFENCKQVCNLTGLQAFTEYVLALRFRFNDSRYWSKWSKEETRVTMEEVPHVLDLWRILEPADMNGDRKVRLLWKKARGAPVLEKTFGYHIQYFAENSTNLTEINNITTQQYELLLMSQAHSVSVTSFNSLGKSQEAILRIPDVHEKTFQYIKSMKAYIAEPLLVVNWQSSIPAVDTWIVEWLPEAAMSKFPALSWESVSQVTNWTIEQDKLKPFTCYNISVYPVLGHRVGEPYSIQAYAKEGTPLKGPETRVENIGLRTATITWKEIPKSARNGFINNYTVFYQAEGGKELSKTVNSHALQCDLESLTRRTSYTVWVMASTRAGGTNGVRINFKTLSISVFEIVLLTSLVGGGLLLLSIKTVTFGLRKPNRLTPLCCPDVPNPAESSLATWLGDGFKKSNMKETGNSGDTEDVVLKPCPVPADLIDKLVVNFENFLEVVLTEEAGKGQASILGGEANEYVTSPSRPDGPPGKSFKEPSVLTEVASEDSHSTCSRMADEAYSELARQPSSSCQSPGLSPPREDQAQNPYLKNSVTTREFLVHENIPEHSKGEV
Assay: immunohistochemical staining of auricles of chronic dermatitis model mice
Source text: The expression of human NR 10 was reported to be enhanced in thickened epidermis of atopic dermatitis patients (Non-patent Document 1). Auricles of the above-described chronic dermatitis model mice were immunohistochemically stained.

binding result: binds
B1: BM095 in which the constant region was replaced with that of human IgG (antibody, V domains shown)
VH: not shown
VL: LPVLTQPPSVSVAPGQTARITCGGNNIGSKTVYWYQQEPGQAPVLVVYDDTDRPAGIPERFSGANSGNTATLTISRVEAGDEADYYCQVWDSSTDHGVFGGGTKLTVLG
